B1: Androgen receptor, residues 557 to 632; numbered along this chain, P10275 (parent)
chain: QKTCLICGDEASGCHYGALTCGSCKVFFKRAAEGKQKYLCASRNDCTIDKFRRKNCPSCRLRKCYEAGMTLGARKL

Variants of: B1
Test: abundance fitness (aPCA) (normalised: wild type 0, dead -1); higher = more abundant; growth selection in yeast, the domain comes from the species named
Conditions: Homo sapiens

Abundance fitness, by site and new letter:
Y38: R -0.239, V -0.092, E -0.064, W -0.239, S -0.116, L -0.046, Q -0.072, D -0.059, N -0.245, G -0.222, T -0.179, K -0.085, I 0.111, H -0.231, M -0.036, P -0.007, F -0.097, A -0.057, C -0.305
C40: R -0.798, K -0.632, I -0.948, D -1.14, G -0.891, P -0.756, V -0.693, Y -1.13, S -0.713, Q -0.482, E -0.576, W -1.16, T -0.554
R52: S -0.087, Y -0.09, N -0.072, W -0.311, I -0.042, M -0.067, C -0.087, K -0.033, F -0.164, T 0.067, P 0.004, D 0.047, G -0.001, A -0.157, Q -0.063, L -0.044, E -0.003, H -0.076, V 0.041
S58: G 0.059, D -0.029, N -0.189, C 0.075, W -0.458, H -0.112, R -0.09, T -0.229, E 0.133, I -0.577, K -0.125, Q -0.134, A -0.035, P 0.013, L -0.251, V -0.16, Y -0.202
L39: N -0.008, Y 0.045, P -0.086, K 0.094, T -0.032, M 0.047, H -0.033, V 0.029, G -0.009, R -0.006, D -0.068, C -0.069, E 0.054, W -0.064, Q 0.011, S -0.128
I48: H -0.482, E -0.348, V -0.02, S -0.251, D -0.331, F -0.226, Y -0.177, G -0.362, N -0.199, L -0.204, W -0.37, Q -0.203, P -0.25, C -0.585, M -0.154
K37: S -0.086, I -0.091, R -0.054, L -0.126, N 0.073, P 0.006, T 0.01, M -0.131, F -0.331, Y -0.178, W -0.168, H 0.168, Q 0.079, C -0.185, A 0.038, G -0.08, D -0.009, V -0.058
K63: L -0.111, C -0.143, G -0.4, I -0.146, E 0.009, F -0.347, Q -0.084, A -0.141, M -0.133, N -0.127, H -0.423, P -0.949, D -0.283
D49: M -0.448, P -0.482, T -0.165, C -0.538, I -0.283, R -0.342, V -0.512, G -0.197, W -0.402, H -0.382, Y -0.634, K -0.317, A -0.283, E -0.066, N -0.188, L -0.502, F -0.613, S -0.139
N55: K 0.044, C -0.075, M 0.216, R -0.06, P -0.099, V -0.151, E -0.407, H -0.011, W -0.421, A 0.089, I -0.075, G -0.073, Y -0.067, T -0.012, Q -0.076, D 0.032, L -0.022
K50: N 0.087, H -0.087, T -0.068, Q -0.075, V -0.063, R -0.068, P -0.007, G -0.146, F -0.277, W -0.227, D -0.403, L -0.027, I -0.26, E -0.124, M -0.195, S -0.13, C -0.103, Y -0.124
N44: K -0.177, A -0.064, R -0.258, L -0.251, M -0.083, V -0.343, H -0.229, S -0.076, D -0.002, T -0.159, F -0.158, C -0.419, G 0.026, W -0.344, E -0.031, Y -0.274, I -0.433
C46: N -0.711, I -0.784, D -0.495, T -0.713, S -0.843, E -0.542, H -0.38, K -0.735, A -0.904, R -0.892, W -0.878, Q -0.8, M -0.914, P -0.926, Y -1.06, F -0.912, V -0.942
T47: W -0.244, E -0.059, D -0.017, L -0.041, Y -0.071, N -0.067, F -0.077, P 0.007, M -0.086, R -0.108, S -0.015, I -0.03, C -0.077, G -0.079, Q -0.075, H -0.026
P57: H 0.02, E 0.044, I -0.167, C 0.088, Q -0.095, D 0.1, L -0.075, R -0.1, F -0.024, V -0.037, T -0.111, Y -0.03, K -0.043, M -0.09, W 0, A -0.011
C56: I -0.782, Q -1.01, H -0.804, A -0.533, R -1.02, G -1.05, P -0.812, M -0.662, N -0.968, V -1.15, S -0.776, W -0.964, D -0.663, L -0.498, T -0.562, F -0.938, K -0.848
D45: K 0.101, V -0.12, T -0.091, C -0.325, Y -0.176, S -0.275, G -0.162, E -0.037, N 0.009, M -0.206, W -0.465, L -0.177, I -0.07, F -0.498, A -0.094, P -0.221, Q 0.176
K35: Y -0.034, I -0.09, G -0.031, S -0.031, W -0.213, T 0.039, H -0.044, M 0.018, N -0.093, R 0.004, L -0.135, Q 0.007, P 0.074
Q36: R -0.144, D 0.048, E 0.031, G 0.011, K 0.013, W -0.251, T -0.173, C -0.2, F -0.156, V 0.065, H -0.01, P -0.006, A -0.019, N -0.134, I -0.197, S -0.094, L -0.075, Y -0.189, M -0.084
A41: P -0.12, H -0.279, G -0.091, Q -0.081, Y 0.044, S -0.041, E -0.079, C -0.18, F -0.113, D 0.041, R -0.051, I -0.275, V 0.01, N -0.165, M -0.186, T -0.056, K -0.368, W -0.187, L -0.047

Source: the Human Domainome abundance scans (Beltran et al. 2025)
